Measured values as given in paper PMC11671767, “GENOMES UNCOUPLED PROTEIN1 binds to plastid RNAs and promotes their maturation”.

Experiments:
[1] = molecular target: T1, GUN1-PS (Arabidopsis thaliana, UniProt Q9SIC9 232-918); assay: EMSA; 100-600 nM protein; 5x buffer (4 ul per reaction): 50 mM Tris-HCl pH 7.5, 50 mM NaCl, 200 mM KCl, 5 mM MgCl2, 5 mM EDTA, 5 mM DTT, 0.25 mg/ml BSA, 5% glycerol; 30 min at 23 C; 5% native PAGE, 0.5x TBE, 4 C; details: protein: recombinant, tags: N-terminal TRX-His
T1 sequence: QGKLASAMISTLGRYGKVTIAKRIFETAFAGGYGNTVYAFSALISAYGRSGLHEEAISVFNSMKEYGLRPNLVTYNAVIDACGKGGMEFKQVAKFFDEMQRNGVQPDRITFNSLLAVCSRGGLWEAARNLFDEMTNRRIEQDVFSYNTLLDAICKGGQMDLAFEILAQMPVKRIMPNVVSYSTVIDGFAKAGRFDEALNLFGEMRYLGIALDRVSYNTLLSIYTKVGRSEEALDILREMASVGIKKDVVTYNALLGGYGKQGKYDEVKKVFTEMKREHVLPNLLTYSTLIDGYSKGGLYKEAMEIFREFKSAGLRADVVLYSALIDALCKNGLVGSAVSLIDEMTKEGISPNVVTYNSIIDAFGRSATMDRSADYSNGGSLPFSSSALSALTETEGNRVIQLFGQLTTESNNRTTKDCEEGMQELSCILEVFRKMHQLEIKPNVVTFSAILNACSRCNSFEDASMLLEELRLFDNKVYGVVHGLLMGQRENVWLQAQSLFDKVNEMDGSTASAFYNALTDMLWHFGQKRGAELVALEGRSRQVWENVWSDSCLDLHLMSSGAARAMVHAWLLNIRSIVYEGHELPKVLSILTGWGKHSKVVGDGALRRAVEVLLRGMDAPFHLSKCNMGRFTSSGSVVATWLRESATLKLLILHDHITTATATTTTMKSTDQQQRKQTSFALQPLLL

[2] = molecular target: T1, GUN1-PS; assay: competition; vs Cy5-trnG.1, 5-50x; 5x buffer (4 ul per reaction): 50 mM Tris-HCl pH 7.5, 50 mM NaCl, 200 mM KCl, 5 mM MgCl2, 5 mM EDTA, 5 mM DTT, 0.25 mg/ml BSA, 5% glycerol; 30 min at 23 C; 5% native PAGE, 0.5x TBE, 4 C; details: protein: recombinant; tags: N-terminal TRX-His
[3] = molecular target: T1, GUN1-PS; assay: competition; vs Cy5-23S_104856, 5-50x; reduces the weak shift; 5x buffer (4 ul per reaction): 50 mM Tris-HCl pH 7.5, 50 mM NaCl, 200 mM KCl, 5 mM MgCl2, 5 mM EDTA, 5 mM DTT, 0.25 mg/ml BSA, 5% glycerol; 30 min at 23 C; 5% native PAGE, 0.5x TBE, 4 C; details: protein: recombinant; tags: N-terminal TRX-His
[4] = molecular target: T1, GUN1-PS; assay: EMSA; binding at 37 C, gel at room temperature; similar to RNA1; 5x buffer (4 ul per reaction): 50 mM Tris-HCl pH 7.5, 50 mM NaCl, 200 mM KCl, 5 mM MgCl2, 5 mM EDTA, 5 mM DTT, 0.25 mg/ml BSA, 5% glycerol; 30 min at 23 C; 5% native PAGE, 0.5x TBE, 4 C; details: protein: recombinant; tags: N-terminal TRX-His
[5] = molecular target: T1, GUN1-PS; assay: competition; vs Cy5-ndhG, 5-50x; 5x buffer (4 ul per reaction): 50 mM Tris-HCl pH 7.5, 50 mM NaCl, 200 mM KCl, 5 mM MgCl2, 5 mM EDTA, 5 mM DTT, 0.25 mg/ml BSA, 5% glycerol; 30 min at 23 C; 5% native PAGE, 0.5x TBE, 4 C; details: protein: recombinant; tags: N-terminal TRX-His; hairpin loop (predicted)
[6] = molecular target: T1, GUN1-PS; assay: EMSA; binding at 37 C, gel at room temperature; no clear shift; 5x buffer (4 ul per reaction): 50 mM Tris-HCl pH 7.5, 50 mM NaCl, 200 mM KCl, 5 mM MgCl2, 5 mM EDTA, 5 mM DTT, 0.25 mg/ml BSA, 5% glycerol; 30 min at 23 C; 5% native PAGE, 0.5x TBE, 4 C; details: protein: recombinant; tags: N-terminal TRX-His

AGAAAAAAAUCUGUUGAUAAAUGAA (ssRNA) [ndhG_118454]
binding result ([1]; hairpin loop (predicted)): binds

GCAUCUGAAUUUCAUAACCAAUCUCGAU (ssRNA) [nonspecific competitor for trnG.1]
binding result [2]: no binding

AUUUGGGAAUUUCUCCAUCCAUCAU (ssRNA) [trnG.1]
binding result [1]: binds

AUUCUUAUGUGGCAGUCUCUAGUCCACUAGCUUUUG (ssRNA) [nonspecific competitor for 23S and ndhG]
binding result [3]: binds

GGACCGAAUGAUCUAUCUCU (ssRNA) [Kim_RNA3 (BLRP mut)]
binding result [4]: no binding

AGAAAAAAAUCUGUUGAUAAAUGAA (ssRNA) [ndhG_118454 unlabeled]
binding result [5]: binds

AUUUGGGAAUUUCUCCAUCCAUCAU (ssRNA) [trnG.1 unlabeled]
binding result [2]: binds

GGAAAUCCGUCGAUAUCUCU (ssRNA) [Kim_RNA1 (BLRP)]
binding result [6]: no binding
